Tested on: HUVECs
Assay: In vitro tube formation assay on Matrigel
Assay type: cell-based, human
Details: positive controls, 4 hours on Matrigel, compared to the control group
Description: HUVECs (2×10^4 cells/well) were seeded on a layer of polymerized Matrigel and treated with or without visfatin-derived peptides. The Matrigel culture was incubated at 37°C in the EGM supplemented with EGM-Supplement Mix® containing 1% FBS. After 4 hours, changes in the cell morphology were observed using a phase-contrast microscope and photographed at 40× magnification. Each sample was assayed in duplicate, and independent experiments were repeated three times. Angiogenesis was analyzed with ImageJ software using an angiogenesis analyzer (Bethesda, MD, USA).

B1: visfatin: Commercial recombinant mouse visfatin (Adipogen Life Science), positive control (protein, UniProt Q99KQ4 1-491, looked up)
Nicotinamide …: MNAAAEAEFNILLATDSYKVTHYKQYPPNTSKVYSYFECREKKTENSKVRKVKYEETVFYGLQYILNKYLKGKVVTKEKIQEAKEVYREHFQDDVFNERGWNYILEKYDGHLPIEVKAVPEGSVIPRGNVLFTVENTDPECYWLTNWIETILVQSWYPITVATNSREQKKILAKYLLETSGNLDGLEYKLHDFGYRGVSSQETAGIGASAHLVNFKGTDTVAGIALIKKYYGTKDPVPGYSVPAAEHSTITAWGKDHEKDAFEHIVTQFSSVPVSVVSDSYDIYNACEKIWGEDLRHLIVSRSTEAPLIIRPDSGNPLDTVLKVLDILGKKFPVTENSKGYKLLPPYLRVIQGDGVDINTLQEIVEGMKQKKWSIENVSFGSGGALLQKLTRDLLNCSFKCSYVVTNGLGVNVFKDPVADPNKRSKKGRLSLHRTPAGNFVTLEEGKGDLEEYGHDLLHTVFKNGKVTKSYSFDEVRKNAQLNIEQDVAPH
**Q.** With B1 as the molecule, how does the number of meshes read?
**A.** The number of meshes was “not significantly different”.
